Experimental findings from article PMC9938351 are described below.

The target of test [1] is SARS-CoV-2 ubiquitin-like domain 1 (Ubl1) of Nsp3 (residues 1–111) (SARS-CoV-2). Kind of test: dynamic light scattering.
Test [2] shares this target. Briefly: cross-linking.
Test [3] concerns the target SARS-CoV-2 nucleocapsid (N) protein (residues 1–419) (SARS-CoV-2) (UniProt P0DTC9). Kind of test: ITC. Background: ITC needs no label: the signal is the heat of the interaction.

Turning to “SARS-CoV-2 N protein N-terminal domain (NTD, residues 47–174) (from UniProt P0DTC9 47-174) (domain or fragment)”, the stoichiometry N (in general, the number of molecules, sites or subunits per partner or assembly) in test [1] was determined as 0.5 NTD per Ubl1.

“SARS-CoV-2 ubiquitin-like domain 1 (Ubl1) of Nsp3 (residues 1–111) (domain or fragment)”: the stoichiometry N in test [2] was found to be 2. In addition, in test [3], the Kd (usually the free concentration of one partner at which half of the binding sites on the other are occupied at equilibrium, for simple one-to-one binding) was determined as 0.8 µM; the dH is -14.9 kcal/mol; the stoichiometry N stood at 1.19.
